The Kd is a measure of binding affinity in units of concentration. The IC50 is the concentration that gives 50% inhibition.

The values below come from the Immune Epitope Database (IEDB).

The target in assay [1] is HLA-B*40:01. Briefly: IEDB peptide-MHC binding, purified MHC/competitive/radioactivity; filed as Kd, often an IC50 or EC50 that approximates it; ≥ and ≤ were set here for values at or beyond the usual limits of such assays.
The next assay deals with HLA-B*40:02. The assay is described as above.
Assay [2] addresses HLA-B*44:02. The assay is described as above.
Assay [3] has as its target HLA-B*18:01. Described as above.
Another assay has as its target HLA-B*45:01. Described as above.
For a further assay, the target named is HLA-B*44:03. Described as above.
Assay [4] deals with HLA-A*02:01. In words: IEDB peptide-MHC binding, purified MHC/competitive/fluorescence; ≥ and ≤ were set here for values at or beyond the usual limits of such assays.
A further assay addresses HLA-A*24:02. Described as above.
In a further assay the target is HLA-B*48:01. Briefly: IEDB peptide-MHC binding, purified MHC/direct/fluorescence; filed as Kd, often an IC50 or EC50 that approximates it; ≥ and ≤ were set here for values at or beyond the usual limits of such assays.
A further assay has as its target HLA-B*08:02. The description is as above.
The next assay concerns the target HLA-B*08:01. Described as above.
Assay [5] deals with HLA-B*40:01. The assay is described as above.
Assay [6] deals with HLA-B*44:02. The assay is described as above.
In another assay the target is HLA-B*58:01. Described as above.
A further assay concerns the target HLA-B*57:01. The description is as above.
Assay [7] deals with HLA-B*18:01. The description is as above.
Assay [8] has as its target HLA-B*46:01. The assay is described as above.
Another assay addresses HLA-B*27:05. The assay is described as above.
Another assay concerns the target HLA-B*07:02. Described as above.
The target of a further assay is HLA-A*01:01. The description is as above.
Assay [9] addresses HLA-A*03:01. The assay is described as above.
Assay [10] addresses HLA-A*03:01. Briefly: IEDB peptide-MHC binding, purified MHC/competitive/fluorescence; filed as Kd, often an IC50 or EC50 that approximates it; ≥ and ≤ were set here for values at or beyond the usual limits of such assays.
Another assay has as its target HLA-A*31:01. Briefly: IEDB peptide-MHC binding, purified MHC/direct/fluorescence; filed as Kd, often an IC50 or EC50 that approximates it; ≥ and ≤ were set here for values at or beyond the usual limits of such assays.
The target of another assay is HLA-A*69:01. The description is as above.
In the next assay the target is HLA-A*11:01. The assay is described as above.
Assay [11] deals with HLA-A*02:01. The assay is described as above. As to conditions: source organism: Influenza A virus (A/tiger/Thailand/CU-T6/04(H5N1)).
For a further assay, the target named is HLA-A*26:01. The description is as above. Conditions: source organism: Influenza A virus(A/swine/Shandong/fZC/2003(H9N2)).
The target of another assay is HLA-B*15:01. The assay is described as above. Conditions: source organism: Influenza A virus (A/tiger/Thailand/CU-T6/04(H5N1)).
In a further assay the target is HLA-A*24:03. Described as above. Conditions: source organism: Influenza A virus (A/tiger/Thailand/CU-T6/04(H5N1)).
Assay [12] has as its target HLA-B*46:01. Briefly: IEDB peptide-MHC binding, purified MHC/competitive/fluorescence; filed as Kd, often an IC50 or EC50 that approximates it; ≥ and ≤ were set here for values at or beyond the usual limits of such assays. Conditions: source organism: Yellow fever virus.
Setting [13] is: source organism: Lymphocytic choriomeningitis virus (strain Armstrong).
Setting [14] is: source organism: SARS coronavirus Tor2.
[15] abbreviates: source organism: Vaccinia virus WR.
Where [16] appears, read: source organism: Lassa virus Josiah.
[17] abbreviates: source organism: Mammarenavirus brazilense.
Where [18] appears, read: source organism: Mammarenavirus guanaritoense.
Setting [19] is: source organism: Mammarenavirus lassaense.
Where [20] appears, read: source organism: Sudan ebolavirus.
Where [21] appears, read: source organism: Yersinia pestis.
Where [22] appears, read: source organism: Yersinia pestis CA88-4125.
The mark [23] stands for this setting: source organism: Influenza A virus (A/tiger/Thailand/CU-T6/04(H5N1)).

Consider ADQAIANGV, for which the Kd was at least 73.5 µM in the assay with HLA-B*40:01 [1] (setting [13]); 3.33 µM with HLA-B*40:02 (setting [13]); 14.9 µM with HLA-B*44:02 [2] (setting [13]); at least 33.8 µM with HLA-B*18:01 [3] (setting [13]); at least 20.7 µM with HLA-B*45:01 (setting [13]); at least 30.2 µM in the assay with HLA-B*44:03 (setting [13]).
On to EELFYSYAT, for which the Kd was determined as 0.691 µM in the assay with HLA-B*40:01 [1] (setting [14]); 0.0246 µM in the assay with HLA-B*40:02 (setting [14]); 0.278 µM with HLA-B*44:02 [2] (setting [14]); 1.04 µM with HLA-B*18:01 [3] (setting [14]); 0.00316 µM in the assay with HLA-B*45:01 (setting [14]); 0.169 µM in the assay with HLA-B*44:03 (setting [14]).
Turning to EILNTIQFM, the values for the IC50 in the assay with HLA-A*02:01 [4] (setting [15]) and with HLA-A*24:02 (setting [15]) were 7.58 µM and at least 111 µM, respectively.
With FDAAVSGGL, the Kd was at least 20 µM with HLA-B*40:01 [1] (setting [16]); 5.87 µM in the assay with HLA-B*40:02 (setting [16]); at least 77.9 µM with HLA-B*44:02 [2] (setting [16]); at least 77.5 µM with HLA-B*18:01 [3] (setting [16]); at least 28.8 µM with HLA-B*45:01 (setting [16]); at least 78.1 µM in the assay with HLA-B*44:03 (setting [16]).
In the case of FQWAIQDGI, the Kd in the assay with HLA-B*48:01 (source organism: Cryptosporidium parvum Iowa II) was found to be 0.082 µM.
Turning to GDNEIEYGF, the Kd was 9.48 µM with HLA-B*40:01 [1] (setting [17]); 1.28 µM in the assay with HLA-B*40:02 (setting [17]); 4.34 µM with HLA-B*44:02 [2] (setting [17]); 4.07 µM in the assay with HLA-B*18:01 [3] (setting [17]); 12.2 µM with HLA-B*45:01 (setting [17]); 17 µM with HLA-B*44:03 (setting [17]).
With GEKSRCYSL, the Kd in the assay with HLA-B*40:01 [1] (setting [18]) is 0.488 µM; in the assay with HLA-B*40:02 (setting [18]) it was 0.0147 µM; with HLA-B*44:02 [2] (setting [18]), 2.05 µM; in the assay with HLA-B*18:01 [3] (setting [18]) it was at least 77.5 µM; with HLA-B*45:01 (setting [18]) it was 1.24 µM; with HLA-B*44:03 (setting [18]) it was 11.9 µM.
As to GEPKESTPM, the Kd with HLA-B*40:01 [1] (setting [19]) was 1.18 µM; with HLA-B*40:02 (setting [19]) it was 0.191 µM; in the assay with HLA-B*44:02 [2] (setting [19]), 9.34 µM; with HLA-B*18:01 [3] (setting [19]), at least 77.5 µM; in the assay with HLA-B*45:01 (setting [19]) it was at least 77.7 µM; in the assay with HLA-B*44:03 (setting [19]) it was at least 78.1 µM.
With GETALALLLL, the Kd with HLA-B*40:01 [1] (setting [14]) was 0.0161 µM; with HLA-B*40:02 (setting [14]), 0.0162 µM; with HLA-B*44:02 [2] (setting [14]) it was 1.34 µM; with HLA-B*18:01 [3] (setting [14]), at least 48.1 µM; in the assay with HLA-B*45:01 (setting [14]) it was 1.9 µM; in the assay with HLA-B*44:03 (setting [14]), 0.149 µM.
HQDNLDTVI: the Kd with HLA-B*48:01 (source organism: Mycobacterium tuberculosis C) is 9.15 µM.
On to IASMRRNYF, for which the Kd in the assay with HLA-B*08:02 (source organism: Influenza A virus (A/Taiwan/2/2006(H1N1))) was found to be 2.23 µM; with HLA-B*08:01 (source organism: Influenza A virus (A/camel/Mongolia/1982(H1N1))), 0.401 µM.
As to IDNQKLSYL, the Kd with HLA-B*40:01 [1] (setting [17]) is at least 76.1 µM; with HLA-B*40:02 (setting [17]), 6.52 µM; in the assay with HLA-B*44:02 [2] (setting [17]) it was at least 77.9 µM; with HLA-B*18:01 [3] (setting [17]), at least 77.5 µM; with HLA-B*45:01 (setting [17]), 17.7 µM; with HLA-B*44:03 (setting [17]), at least 78.1 µM.
Consider ILNHKFCNL, for which the Kd in the assay with HLA-B*40:01 [5] (setting [19]), with HLA-B*48:01 (setting [19]), with HLA-B*44:02 [6] (setting [19]), with HLA-B*58:01 (setting [19]), with HLA-B*57:01 (setting [19]) and with HLA-B*18:01 [7] (setting [19]) was at least 20 µM throughout. Further, the Kd in the assay with HLA-B*46:01 [8] (setting [19]) was at least 20 µM; in the assay with HLA-B*27:05 (setting [19]), at least 20 µM; with HLA-B*07:02 (setting [19]) it was at least 20 µM; with HLA-A*01:01 (setting [19]), at least 20 µM; with HLA-B*08:01 (setting [19]) it was 0.142 µM; in the assay with HLA-A*03:01 [9] (setting [19]), at least 20 µM.
With KEGIVWVAT, the Kd with HLA-B*40:01 [1] (setting [14]) was 6.26 µM; with HLA-B*40:02 (setting [14]), 0.0296 µM; with HLA-B*44:02 [2] (setting [14]) it was at least 20 µM; with HLA-B*18:01 [3] (setting [14]) it was at least 62.8 µM; with HLA-B*45:01 (setting [14]) it was 0.0696 µM; with HLA-B*44:03 (setting [14]), 12.3 µM.
In turn, KKKLRPRWL returned a Kd with HLA-B*08:02 (source organism: dengue virus type 4) of at least 20 µM.
Regarding KLSSEQLSH, the Kd with HLA-A*03:01 [10] (source organism: Giardia lamblia ATCC 50803) is 0.0594 µM.
With LMHNQNALV, the values for the IC50 in the assay with HLA-A*02:01 [4] (setting [20]) and in the assay with HLA-A*24:02 (setting [20]) were 1.16 µM and at least 87 µM, respectively.
For the sequence QLKSRAAVL, the Kd with HLA-B*40:01 [5] (setting [21]) is at least 20 µM; with HLA-A*31:01 (setting [21]) it was at least 20 µM; in the assay with HLA-B*44:02 [6] (setting [21]), at least 20 µM; with HLA-B*58:01 (setting [21]), at least 20 µM; in the assay with HLA-B*08:02 (setting [22]) it was 0.948 µM; with HLA-B*57:01 (setting [21]) it was at least 20 µM. The dissociation constant (Kd) with HLA-B*18:01 [7] (setting [21]) is at least 20 µM; in the assay with HLA-A*69:01 (setting [21]), at least 20 µM; with HLA-B*46:01 [8] (setting [21]), at least 20 µM; with HLA-B*27:05 (setting [21]), at least 20 µM; with HLA-A*01:01 (setting [21]), at least 20 µM; with HLA-B*08:01 (setting [22]) it was 0.034 µM. Moreover, the Kd with HLA-A*03:01 [9] (setting [21]) and in the assay with HLA-A*11:01 (setting [21]) was at least 20 µM each time.
In the assay with HLA-A*03:01 [10] (source organism: Shigella boydii CDC 3083-94), RIHGLGFCY showed a Kd of 0.608 µM.
In the assay with HLA-B*08:02 (source organism: Dengue virus 2 Thailand/16681/84), RKKLKPRWL showed a Kd of at least 20 µM.
For the sequence RMKWMMAMR, the Kd with HLA-A*03:01 [10] (source organism: Influenza A virus (A/chicken/Fujian/25/00(H9N2))) was found to be 0.044 µM.
Take RTKSISSR: the Kd with HLA-A*03:01 [10] (source organism: Influenza A virus (A/swine/Quebec/192/81(H1N1))) is at least 20 µM.
As to RVSSFIRGKK, the dissociation constant (Kd) in the assay with HLA-A*03:01 [10] (source organism: Influenza A virus (A/swine/Italy/2/1979(H1N1))) was determined as 0.0025 µM.
For TYQWIIRNW, the Kd is at least 20 µM with HLA-A*02:01 [11]; at least 20 µM with HLA-B*40:01 [5] (setting [23]); at least 20 µM with HLA-A*31:01 (setting [23]); at least 20 µM with HLA-B*44:02 [6] (setting [23]); at least 10 µM with HLA-B*58:01 (setting [23]); at least 20 µM in the assay with HLA-B*08:02 (source organism: Influenza A virus(A/swine/Shandong/fZC/2003(H9N2))). The Kd in the assay with HLA-A*26:01, in the assay with HLA-A*69:01 (setting [23]), with HLA-B*15:01, with HLA-B*46:01 [8] (setting [23]), with HLA-B*27:05 (setting [23]) and in the assay with HLA-B*07:02 (setting [23]) was at least 20 µM each time. The Kd is at least 20 µM with HLA-A*01:01 (setting [23]); at least 20 µM with HLA-B*08:01 (setting [23]); at least 20 µM with HLA-A*03:01 [9] (setting [23]); at least 20 µM in the assay with HLA-A*11:01 (setting [23]); 0.0025 µM in the assay with HLA-A*24:03.
The sequence WFYDNDNPY returned an equilibrium dissociation constant (Kd) with HLA-B*46:01 [12] of 1.17 µM.
